Results on one substance are retold here after article PMC5193325.

The test deals with Flag-NLRP3 (UniProt Q96P20). Description: pull-down; competition: purified cytochrome c (100 ng) or BSA added to Flag-NLRP3 immunoprecipitates with HA-NEK7 lysate, 1 hour at room temperature; NEK7 left on the beads read by immunoblot, ImageJ.
Sequence of Flag-NLRP3 (Q96P20 whole entry): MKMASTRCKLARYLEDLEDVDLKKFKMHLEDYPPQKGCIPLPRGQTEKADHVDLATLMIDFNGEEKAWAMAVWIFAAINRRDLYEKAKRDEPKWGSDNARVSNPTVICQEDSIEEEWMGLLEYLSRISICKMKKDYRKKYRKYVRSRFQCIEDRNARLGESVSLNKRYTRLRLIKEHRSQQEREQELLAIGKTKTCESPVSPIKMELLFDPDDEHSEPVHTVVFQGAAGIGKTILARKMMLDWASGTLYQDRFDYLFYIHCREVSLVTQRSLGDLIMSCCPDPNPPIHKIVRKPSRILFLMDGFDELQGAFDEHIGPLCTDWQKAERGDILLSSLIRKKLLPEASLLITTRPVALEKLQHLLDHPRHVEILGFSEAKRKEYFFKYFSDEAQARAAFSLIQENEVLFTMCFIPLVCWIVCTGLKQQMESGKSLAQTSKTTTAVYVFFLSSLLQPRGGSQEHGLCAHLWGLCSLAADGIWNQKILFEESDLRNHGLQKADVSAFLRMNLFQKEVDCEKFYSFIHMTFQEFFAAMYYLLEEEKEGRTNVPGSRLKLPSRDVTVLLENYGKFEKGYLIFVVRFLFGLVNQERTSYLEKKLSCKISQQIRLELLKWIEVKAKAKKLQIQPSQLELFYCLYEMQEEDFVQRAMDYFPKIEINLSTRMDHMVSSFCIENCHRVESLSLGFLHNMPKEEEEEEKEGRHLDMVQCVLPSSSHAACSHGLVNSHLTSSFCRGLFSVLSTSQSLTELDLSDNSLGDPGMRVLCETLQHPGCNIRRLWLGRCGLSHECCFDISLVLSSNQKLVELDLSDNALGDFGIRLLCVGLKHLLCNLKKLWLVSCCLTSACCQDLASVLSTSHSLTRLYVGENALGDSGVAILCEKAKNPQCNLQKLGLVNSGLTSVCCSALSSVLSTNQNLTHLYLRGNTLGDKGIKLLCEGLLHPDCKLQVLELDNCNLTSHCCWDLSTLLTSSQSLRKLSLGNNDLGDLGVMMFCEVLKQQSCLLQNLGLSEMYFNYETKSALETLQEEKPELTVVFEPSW

Regarding “Purified cytochrome c protein (Sigma-Aldrich) (from UniProt P99999 1-105) (natural protein)”, the percent reduction of NEK7 bound to Flag-NLRP3 (cytochrome c against BSA) came out at 70%.
